According to US10314894B2, “Treatment of cardio-renal disease using PCSK6” (THE CLEVELAND CLINIC FOUNDATION, priority 2014, dated 2019):

What was measured:
corin mutant K317E = biological target: T1, corin mutant K317E (Homo sapiens, UniProt Q9Y5Q5, K317E); assay: PCSK6-mediated corin activation in HEK293 cells, corin mutant K317E; assay type: cell-based; conditions: Western, densitometry
T1 construct: expressed in transfected cells; host or cells: HEK293
T1 sequence (Q9Y5Q5 1-1042 K317E): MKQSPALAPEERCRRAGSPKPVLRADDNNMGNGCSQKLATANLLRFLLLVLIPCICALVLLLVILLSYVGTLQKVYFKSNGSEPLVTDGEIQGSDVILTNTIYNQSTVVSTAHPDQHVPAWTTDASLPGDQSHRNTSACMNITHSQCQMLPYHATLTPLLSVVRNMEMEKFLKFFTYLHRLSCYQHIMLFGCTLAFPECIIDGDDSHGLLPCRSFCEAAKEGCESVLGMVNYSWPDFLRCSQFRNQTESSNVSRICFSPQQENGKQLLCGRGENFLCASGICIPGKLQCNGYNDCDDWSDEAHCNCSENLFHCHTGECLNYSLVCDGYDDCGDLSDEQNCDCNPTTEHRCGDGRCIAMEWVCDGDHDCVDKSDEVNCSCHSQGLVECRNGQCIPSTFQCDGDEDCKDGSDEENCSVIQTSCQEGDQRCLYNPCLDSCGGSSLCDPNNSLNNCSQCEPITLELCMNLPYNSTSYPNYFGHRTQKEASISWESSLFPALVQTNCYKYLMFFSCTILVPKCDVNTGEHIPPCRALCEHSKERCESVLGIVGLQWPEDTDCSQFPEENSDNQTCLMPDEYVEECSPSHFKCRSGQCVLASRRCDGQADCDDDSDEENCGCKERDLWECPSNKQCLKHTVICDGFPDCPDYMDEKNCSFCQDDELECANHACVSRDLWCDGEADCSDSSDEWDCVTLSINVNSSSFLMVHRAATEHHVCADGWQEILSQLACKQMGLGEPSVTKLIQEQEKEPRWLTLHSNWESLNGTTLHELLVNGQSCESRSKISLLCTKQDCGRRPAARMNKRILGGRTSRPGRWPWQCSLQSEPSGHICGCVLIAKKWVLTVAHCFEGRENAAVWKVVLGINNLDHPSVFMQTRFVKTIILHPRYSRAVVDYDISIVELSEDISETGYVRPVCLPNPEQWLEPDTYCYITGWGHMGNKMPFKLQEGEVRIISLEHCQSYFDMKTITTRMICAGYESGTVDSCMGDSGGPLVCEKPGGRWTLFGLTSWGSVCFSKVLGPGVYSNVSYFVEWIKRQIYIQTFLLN
Source text: (§1) Plasmids expressing human corin WT and mutants R801A, S985A, T555I, Q568P, T555I/Q568P, K317E, S472G and R539C were reported previously. Dong, N. et al., J Biol Chem 289, 17909-17916 (2014); Knappe et al., J Biol Chem 278, 52363-52370 (2003); Wu et al., J Biol Chem 277, 16900-16905. (2002). Plasmids expressing human PCSK1-9 were made by cloning respective cDNAs into pcNDA3.1 vector. Recombinant corin and PCSK proteins encoded by these plasmids contained a C-terminal V5 or flag tag for protein detection in Western blotting.
(§2) HEK293 and HL-1 cells were transfected with corin or PCSK6 expression plasmids. After 48-72 h, cells were lysed in a buffer containing 25 mM Tris-HCl, pH 7.4, 150 mM NaCl, 1 mM EDTA, 1% (v/v) NP-40, and 1% (v/v) protease inhibitor cocktail. Recombinant corin and PCSK6 proteins were immunoprecipitated with an anti-V5 or anti-flag antibody. Western blotting was carried out to analyze corin expression and activation or PCSK6 expression with or without reducing agents. Percentage of corin activation (corin-p vs. corin fragments) was quantified by densitometric analysis of Western blots.

corin variant T555I = biological target: T2, corin variant T555I (Homo sapiens, UniProt Q9Y5Q5, T555I); assay: PCSK6-mediated corin activation in HEK293 cells, corin variant T555I; assay type: cell-based; conditions: Western
T2 construct: expressed in transfected cells; host or cells: HEK293
T2 sequence (Q9Y5Q5 1-1042 T555I): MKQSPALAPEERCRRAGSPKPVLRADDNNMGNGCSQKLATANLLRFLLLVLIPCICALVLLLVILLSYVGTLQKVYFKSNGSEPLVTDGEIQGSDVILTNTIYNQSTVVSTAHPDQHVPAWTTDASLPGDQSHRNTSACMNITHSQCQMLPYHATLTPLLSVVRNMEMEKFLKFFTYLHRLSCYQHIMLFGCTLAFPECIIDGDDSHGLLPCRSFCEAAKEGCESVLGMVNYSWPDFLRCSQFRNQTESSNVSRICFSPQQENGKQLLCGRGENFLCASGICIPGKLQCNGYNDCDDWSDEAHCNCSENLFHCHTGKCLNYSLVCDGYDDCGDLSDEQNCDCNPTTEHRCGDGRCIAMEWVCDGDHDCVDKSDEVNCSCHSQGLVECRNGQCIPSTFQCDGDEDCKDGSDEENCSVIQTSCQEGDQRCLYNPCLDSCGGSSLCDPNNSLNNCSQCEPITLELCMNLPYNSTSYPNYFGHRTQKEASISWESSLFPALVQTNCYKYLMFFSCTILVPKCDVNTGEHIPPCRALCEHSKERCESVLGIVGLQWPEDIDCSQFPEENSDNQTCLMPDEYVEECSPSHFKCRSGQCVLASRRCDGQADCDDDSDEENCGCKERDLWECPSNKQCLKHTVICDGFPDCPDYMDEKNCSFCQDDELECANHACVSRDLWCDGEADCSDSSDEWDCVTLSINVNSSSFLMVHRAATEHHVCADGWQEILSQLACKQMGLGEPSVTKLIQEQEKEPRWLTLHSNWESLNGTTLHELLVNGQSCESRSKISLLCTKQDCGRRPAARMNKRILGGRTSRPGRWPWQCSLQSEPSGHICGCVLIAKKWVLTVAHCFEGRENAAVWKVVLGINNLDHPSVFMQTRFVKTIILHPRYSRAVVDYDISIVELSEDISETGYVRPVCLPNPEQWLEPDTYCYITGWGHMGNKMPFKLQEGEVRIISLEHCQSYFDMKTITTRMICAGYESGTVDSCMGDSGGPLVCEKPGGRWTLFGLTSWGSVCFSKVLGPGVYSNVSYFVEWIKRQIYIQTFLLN
Source text: as §1, §2

B1: proprotein convertase subtilisin/kexin-6 (protein, listed as Homo sapiens)
chain: MPPRAPPAPGPRPPPRAAAATDTAAGAGGAGGAGGAGGPGFRPLAPRPWRWLLLLALPAACSAPPPRPVYTNHWAVQVLGGPAEADRVAAAHGYLNLGQIGNLEDYYHFYHSKTFKRSTLSSRGPHTFLRMDPQVKWLQQQEVKRRVKRQVRSDPQALYFNDPIWSNMWYLHCGDKNSRCRSEMNVQAAWKRGYTGKNVVVTILDDGIERNHPDLAPNYDSYASYDVNGNDYDPSPRYDASNENKHGTRCAGEVAASANNSYCIVGIAYNAKIGGIRMLDGDVTDVVEAKSLGIRPNYIDIYSASWGPDDDGKTVDGPGRLAKQAFEYGIKKGRQGLGSIFVWASGNGGREGDYCSCDGYTNSIYTISVSSATENGYKPWYLEECASTLATTYSSGAFYERKIVTTDLRQRCTDGHTGTSVSAPMVAGIIALALEANSQLTWRDVQHLLVKTSRPAHLKASDWKVNGAGHKVSHFYGFGLVDAEALVVEAKKWTAVPSQHMCVAASDKRPRSIPLVQVLRTTALTSACAEHSDQRVVYLEHVVVRTSISHPRRGDLQIYLVSPSGTKSQLLAKRLLDLSNEGFTNWEFMTVHCWGEKAEGQWTLEIQDLPSQVRNPEKQGKLKEWSLILYGTAEHPYHTFSAHQSRSRMLELSAPELEPPKAALSPSQVEVPEDEEDYTAQSTPGSANILQTSVCHPECGDKGCDGPNADQCLNCVHFSLGSVKTSRKCVSVCPLGYFGDTAARRCRRCHKGCETCSSRAATQCLSCRRGFYHHQEMNTCVTLCPAGFYADESQKNCLKCHPSCKKCVDEPEKCTVCKEGFSLARGSCIPDCEPGTYFDSELIRCGECHHTCGTCVGPGREECIHCAKNFHFHDWKCVPACGEGFYPEEMPGLPHKVCRRCDENCLSCAGSSRNCSRCKTGFTQLGTSCITNHTCSNADETFCEMVKSNRLCERKLFIQFCCRTCLLAG
modifications: C-terminal FLAG tag
Corin mutant K317E
  reduction in PCSK6-mediated corin activation compared with WT corin: 39%
Corin variant T555I
  PCSK6-mediated activation cleavage: detected
